In paper PMC7265302 (Nature Communications, 2020):

Biological target: MavC (residues 1–385, [change]) (Legionella pneumophila, UniProt Q5ZTL4 1-385)
Experiment: crystal structure
Details: both partners purified

B1: UBE2N (K94A), the UBE2N moiety of the conjugated UBE2N~Ub (enzyme)
chain: MAGLPRRIIKETQRLLAEPVPGIKAEPDESNARYFHVVIAGPQDSPFEGGTFKLELFLPEEYPMAAPKVRFMTKIYHPNVDKLGRICLDILKDAWSPALQIRTVLLSIQALLSAPNPDDPLANDVAEQWKTNEAQAIETARAWTRLYAMNNI
notes: UBE2N, human E2 enzyme
  binding result: binds
